Reference: patent publication US20090227507A1, “Angiotensin (1-7) Dosage Forms and Uses Thereof” (UNIVERSITY OF SOUTHERN CALIFORNIA, priority 2008, published 2009)

Columns and labels:
[1] = system: CD3 cells in peripheral blood; test: Flow cytometry of peripheral blood, CD3 lymphocytes; USB003 SC once daily for 7 days in healthy men; type: in vivo, human; parameters: key to Subjects with shift, Absolute CD3, N-L (normal to low) / Subjects with shift, Absolute CD3, N-H (normal to high) / Subjects with shift, Absolute CD3, L-N (low to normal) / Subjects with shift, Absolute CD3, H-N (high to normal): — signifies subject with no shift from baseline; conditions: for CD3, Absolute, Mean at Baseline: Baseline (Day 1)
Experimental: • Single-center, randomized, double-blind, placebo-controlled, 2 cohort dose-escalation trial of once daily dosing over a 7-day period (7 doses total): • Cohort 1: 2 subjects treated with placebo and 8 subjects treated with 200 μg/kg USB003 (A(1-7)) • Cohort 2: 2 subjects treated with placebo and 8 subjects treated with 300 μg/kg USB003 • For each cohort, there was a Screening Period, Treatment Phase, Follow-up Period, and Study Termination or Early Withdrawal Day. Subjects were confined to the study unit during the Treatment Phase. • Cohort 2 was treated approximately 1 week after completion of the Treatment Phase for Cohort 1 to allow time for the assessment of safety and tolerability in the first cohort.
Pharmacological Effect: The following evaluations (under efficacy and safety in the protocol) were performed: • Effects on the number of mature blood cells: • 1. CBC (with differential), platelet count, reticulocyte count. • Effects on early hematopoietic progenitor cells and mature lymphocyte subsets in the periphery: • 1. Flow cytometry to evaluate frequency of peripheral blood progenitor cells (eg, CD34^+) and lymphocyte subsets (eg, CD3, CD4, CD8) in peripheral blood. • 2. Collection of blood for later possible culture for progenitor cells (eg, colony forming units-granulocyte/macrophage [CFU-GM]) to evaluate potential effects on CD34^+ hematopoietic progenitor cells in peripheral blood. • 3.
The effect of USB003 on the number of mature blood cells was assessed by the complete blood count with differential, platelet and reticulocyte counts. The effects on early hematopoietic progenitor cells and mature lymphocyte subsets in the periphery were assessed by flow cytometry. In addition, blood was collected and processed to enable culture of progenitors at a later time.
Red blood cell (RBC) count, RBC indices, white blood cell count (WBC) with differential, reticulocyte count, platelet count, hemoglobin (Hb), hematocrit (Hct), plasma hemoglobin, peripheral flow cytometry, including CD34^+, flow cytometry for enumeration of CD3, CD4, and CD8 lymphocytes, and culture for progenitor cells in peripheral blood including colony-forming units-granulocyte/macrophage (CFU-GM).

[2] = Physical examination in healthy men; type: in vivo, human; conditions: all dose groups; baseline (Day 1) to Day 20
Text: On Day −1, subjects who met the eligibility criteria underwent a PE, vital sign measurements, and had samples drawn to evaluate clinical laboratory parameters. On Study Days 1 through 7 for each cohort, subjects received a single SC injection of USB003 at the assigned dose level or placebo. Subjects were kept in the clinic under observation for the entire Day −1 to Day 8 period. Subjects were discharged from the clinic on the morning of Day 8 after all scheduled procedures and a 24-hour urine collection had been completed. Subjects were scheduled to return to the clinic on Days 11, 14, 17, and 20 for hematology measurements and selected safety assessments. Subjects were to be released from the study following a post-study PE on Day 20.
On Day 20 of the study, subjects were to have returned to the clinic for the post-study check and PE. Blood samples for hematology and plasma USB003 were also drawn.
Laboratory measurements were conducted by a local clinical laboratory.

[3] = Clinical chemistry in healthy men; conditions: for Potassium shift H-N, number of subjects / Potassium shift L-N, number of subjects / Potassium shift N-H, number of subjects / Potassium shift N-L, number of subjects: Chemistry; for AST/SGOT High/Low Normal/Abnormal: Subject 027, 200 μg/kg
Experimental: Safety evaluations are based on AEs, PEs, vital signs, temperature, and laboratory results from baseline to study completion. Laboratory measurements were conducted by a local clinical laboratory. Using standard procedures, blood samples were drawn or urine collected from subjects for the following laboratory tests:
Aspartate aminotransferase (AST), alanine aminotransferase (ALT), gamma, glutamyltranferase (GGT), creatinine, creatine kinase, sodium, potassium, bicarbonate (CO2), chloride, glucose, magnesium, calcium, inorganic phosphorous, blood urea nitrogen (BUN), total protein, albumin, total bilirubin, direct and indirect bilirubin, uric acid, and alkaline phosphatase,

[4] = 200 μg/kg, N = 9, baseline to Day 8
[5] = 300 μg/kg, N = 8, baseline to Day 8

Asp-Arg-Val-Tyr-Ile-His-Pro [USB003]
−121.1 cells/μL: CD3, Absolute, Mean Change from Baseline ([1]; 200 μg/kg, Day 17)
no notable effects: mean change from baseline on any serum chemistry evaluations ([3]; baseline to Day 4 or Day 8)
29 IU/L: AST, Subject 009 ([3]; 200 μg/kg, Day 14)
60.0 cells/μL: CD3, Absolute, Mean Change from Baseline ([1]; 200 μg/kg, Day 14)
70.6 cells/μL: CD3, Absolute, Mean Change from Baseline ([1]; 200 μg/kg, Day 5)
−115.8 cells/μL: CD3, Absolute, Mean Change from Baseline ([1]; 200 μg/kg, Day 3)
−63.6 cells/μL: CD3, Absolute, Mean Change from Baseline ([1]; 200 μg/kg, Day 20)
0.3 cells/μL: CD3, Absolute, Mean Change from Baseline ([1]; 300 μg/kg, Day 14)
67.1 cells/μL: CD3, Absolute, Mean Change from Baseline ([1]; 300 μg/kg, Day 8)
—: Subjects with shift, Absolute CD3, L-N (low to normal) ([1]; 200 μg/kg, Baseline to Day 8) | Subjects with shift, Absolute CD3, N-H (normal to high) ([1]; 200 μg/kg, Baseline to Day 8) | Subjects with shift, Absolute CD3, N-L (normal to low) ([1]; 200 μg/kg, Baseline to Day 8) | Subjects with shift, Absolute CD3, L-N (low to normal) ([1]; 200 μg/kg, Baseline to Day 20) | Subjects with shift, Absolute CD3, N-H (normal to high) ([1]; 200 μg/kg, Baseline to Day 20) | Subjects with shift, Absolute CD3, N-L (normal to low) ([1]; 200 μg/kg, Baseline to Day 20) | Subjects with shift, Absolute CD3, H-N (high to normal) ([1]; 300 μg/kg, Baseline to Day 8) | Subjects with shift, Absolute CD3, L-N (low to normal) ([1]; 300 μg/kg, Baseline to Day 8) | Subjects with shift, Absolute CD3, N-H (normal to high) ([1]; 300 μg/kg, Baseline to Day 8) | Subjects with shift, Absolute CD3, N-L (normal to low) ([1]; 300 μg/kg, Baseline to Day 8) | Subjects with shift, Absolute CD3, H-N (high to normal) ([1]; 300 μg/kg, Baseline to Day 20) | Subjects with shift, Absolute CD3, L-N (low to normal) ([1]; 300 μg/kg, Baseline to Day 20) | Subjects with shift, Absolute CD3, N-H (normal to high) ([1]; 300 μg/kg, Baseline to Day 20) | Subjects with shift, Absolute CD3, N-L (normal to low) ([1]; 300 μg/kg, Baseline to Day 20)
122.0 cells/μL: CD3, Absolute, Mean Change from Baseline ([1]; 200 μg/kg, Day 11)
103 IU/L: ALT, Subject 009 ([3]; 200 μg/kg, Day 8)
1285.5 cells/μL: CD3, Absolute, Mean at Baseline ([1]; 300 μg/kg)
−63.5 cells/μL: CD3, Absolute, Mean Change from Baseline ([1]; 300 μg/kg, Day 11)
66 IU/L: AST, Subject 009 ([3]; 200 μg/kg, Day 8)
−32.0 cells/μL: CD3, Absolute, Mean Change from Baseline ([1]; 200 μg/kg, Day 8)
— (“—” = 0): ALT (SGPT) shift H-N, number of subjects [3, 4] | ALT (SGPT) shift L-N, number of subjects [3, 4] | ALT (SGPT) shift N-L, number of subjects [3, 4] | AST (SGOT) shift H-N, number of subjects [3, 4] | AST (SGOT) shift L-N, number of subjects [3, 4] | AST (SGOT) shift N-L, number of subjects [3, 4] | BUN shift H-N, number of subjects [3, 4] | BUN shift N-H, number of subjects [3, 4] | BUN shift N-L, number of subjects [3, 4] | Magnesium shift H-N, number of subjects [3, 4] | Magnesium shift L-N, number of subjects [3, 4] | Magnesium shift N-H, number of subjects [3, 4] | Total CPK shift L-N, number of subjects [3, 4] | Total CPK shift N-H, number of subjects [3, 4] | Total CPK shift N-L, number of subjects [3, 4] | ALT (SGPT) shift H-N, number of subjects [3, 5] | ALT (SGPT) shift L-N, number of subjects [3, 5] | ALT (SGPT) shift N-H, number of subjects [3, 5] | ALT (SGPT) shift N-L, number of subjects [3, 5] | AST (SGOT) shift H-N, number of subjects [3, 5] | AST (SGOT) shift L-N, number of subjects [3, 5] | AST (SGOT) shift N-H, number of subjects [3, 5] | AST (SGOT) shift N-L, number of subjects [3, 5] | BUN shift H-N, number of subjects [3, 5] | BUN shift N-H, number of subjects [3, 5] | BUN shift N-L, number of subjects [3, 5] | Magnesium shift H-N, number of subjects [3, 5] | Magnesium shift N-H, number of subjects [3, 5] | Magnesium shift N-L, number of subjects [3, 5] | Total CPK shift H-N, number of subjects [3, 5] | Total CPK shift L-N, number of subjects [3, 5] | Total CPK shift N-H, number of subjects [3, 5] | Total CPK shift N-L, number of subjects [3, 5] | Potassium shift H-N, number of subjects [3, 4] | Potassium shift L-N, number of subjects [3, 4] | Potassium shift N-H, number of subjects [3, 4] | Potassium shift N-L, number of subjects [3, 4] | Potassium shift L-N, number of subjects [3, 5] | Potassium shift N-H, number of subjects [3, 5]
53.9 cells/μL: CD3, Absolute, Mean Change from Baseline ([1]; 200 μg/kg, Day 7)
15-20%: increase in CD3 (pan T cell marker) during study drug administration ([1]; 300 μg/kg/day, rapidly diminished after cessation of treatment)
167.8 cells/μL: CD3, Absolute, Mean Change from Baseline ([1]; 300 μg/kg, Day 3)
−87.9 cells/μL: CD3, Absolute, Mean Change from Baseline ([1]; 300 μg/kg, Day 17)
229.8 cells/μL: CD3, Absolute, Mean Change from Baseline ([1]; 300 μg/kg, Day 7)
no changes from baseline: PE findings [2]
1: Subjects with shift, Absolute CD3, H-N (high to normal) ([1]; 200 μg/kg, Baseline to Day 8) | Subjects with shift, Absolute CD3, H-N (high to normal) ([1]; 200 μg/kg, Baseline to Day 20) | ALT (SGPT) shift N-H, number of subjects [3, 4] | AST (SGOT) shift N-H, number of subjects [3, 4] | BUN shift L-N, number of subjects [3, 4] | Magnesium shift N-L, number of subjects [3, 4] | Total CPK shift H-N, number of subjects [3, 4] | BUN shift L-N, number of subjects [3, 5] | Magnesium shift L-N, number of subjects [3, 5] | Potassium shift H-N, number of subjects [3, 5] | Potassium shift N-L, number of subjects [3, 5]
56.9 cells/μL: CD3, Absolute, Mean Change from Baseline ([1]; 300 μg/kg, Day 20)
1732.3 cells/μL: CD3, Absolute, Mean at Baseline ([1]; 200 μg/kg)
N: AST/SGOT High/Low Normal/Abnormal ([3]; Day 7 U (unscheduled)) | AST/SGOT High/Low Normal/Abnormal ([3]; Day 8)
159.8 cells/μL: CD3, Absolute, Mean Change from Baseline ([1]; 300 μg/kg, Day 5)
61 IU/L: ALT, Subject 009 ([3]; 200 μg/kg, Day 14)
